In the supplement of paper PMC10567573:
± gives the standard deviation.

Test: protein stability index of a GFP-peptide fusion (GPS, HEK-293T) (PSI 1-6); higher = more stable
[1] = treatment: DMSO, c terminus: a fixed tail appended
[2] = treatment: MLN4924 1 uM, 8 h, c terminus: a fixed tail appended
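Also: 24-mer peptide tiles fused after GFP, lentivirally expressed, FACS-sorted into six equal bins by GFP/DsRed ratio, decoded by Illumina sequencing, PSI is the read-weighted mean bin number.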

Row | Sequence | protein stability index (treatment: DMSO, c terminus: native) | protein stability index (treatment: MLN4924 1 uM, 8 h, c terminus: native) | protein stability index [1] | protein stability index [2]
1 | YKKGIIRKPDISQRLVYQFVHPI [SPDEF] | 2.43 ± 0.48 | 2.63 ± 0.4 | – | –
2 | KENREEARFQDKQYSSHHTAEKRK [CHGB] | – | – | 5.21 ± 0.41 | 4.89 ± 0.34
3 | INCKGRSKSNLGWTPLHLACYFGH [OSBPL1A] | – | – | 2.63 ± 0.32 | 2.28 ± 0.32
4 | TVQHGAVYSLEPRLCGGKGGFGSM [SDE2] | – | – | 2.33 ± 0.37 | 2.39 ± 0.29
5 | FQGSMRIFTKKLPHPDLPAEEKEQ [USP39] | – | – | 2.55 ± 0.75 | 3.77 ± 0.69
6 | LVVALDVDATLEHVQDPQNTVKVQ [INTS4] | – | – | 3.03 ± 0.14 | 3.21 ± 0.2
7 | AGAGWWVGAAYASLRRRGASAAAR [TRIM14] | – | – | 2.88 ± 0.22 | –
8 | KIGDTKRNTPIEALCENFPEEMAT [CSNK1G1] | – | – | 5.14 ± 0.2 | 5.31 ± 0.2
9 | LSDLEDLEEEEEEEEEAEDEEVVA [IRX6] | – | – | 5.63 ± 0.23 | 5.81 ± 0.077
10 | LVKHKRIHSREKRGDSVKVENPST [ZNF649] | – | – | 4.41 ± 0.32 | 4.54 ± 0.48
11 | RLQQELEQQRCLLLARLRELEQQI [TRIM15] | – | – | 3.68 ± 0.2 | 3.69 ± 0.39
12 | DFRTKYETELSLRQLVEADINGLR [KRT36] | – | – | 3.15 ± 0.15 | 3.38 ± 0.17
13 | PSNKAPLLVLCEDHRGRMVKHQCC [EHMT1] | – | – | 3.13 ± 0.27 | 3.37 ± 0.34
14 | EKLQKEQKELQDVGQSLRIKEQEV [SASS6] | – | – | 4.79 ± 0.94 | 5.29 ± 0.04
15 | ERSVVTRDIRCSEDEKLCDPNTRP [ADAMTSL2] | – | – | 5.06 ± 0.31 | 5.41 ± 0.27
16 | NQPTRFGKLLLRLPSLRTVSSSVI [NR2F2] | – | – | 2.44 ± 0.24 | 2.5 ± 0.2
17 | QAPIAAVLLMHMPAEQAFWCLVQI [TBC1D10A] | – | – | 3.25 ± 0.93 | 3.06 ± 0.31
18 | AQAGTPAPTKPHDYRQEQPETFWI [SPAG8] | – | – | 3.54 ± 0.29 | 3.59 ± 0.29
19 | IPANVSNCNWFCEGSFNGSEKETM [KRT33B] | – | – | 4.19 ± 0.15 | 4.07 ± 0.3
20 | ASLSNQECQLYPRRSQQQQVPVVD [SNURF] | – | – | 4.57 ± 0.14 | 4.46 ± 0.24
21 | SSVQSYPGSASLAQSRLEDPGQDL [DLX1] | – | – | 4.89 ± 0.28 | 5.09 ± 0.19
22 | INRLVGLQNTYMGYLDYRKKAIKD [GLT8D2] | – | – | 2.7 ± 0.3 | 3.01 ± 0.05
23 | QQHSDKTSLQGLTGTPLVAGSPIR [ISL2] | – | – | 4.2 ± 0.21 | 4.39 ± 0.13

Row | Sequence | protein stability index (treatment: DMSO, c terminus: native) | protein stability index (treatment: MLN4924 1 uM, 8 h, c terminus: native) | protein stability index [1] | protein stability index [2]
24 | CGKYFQGRGLKSHAYIHSVQFSHH [USP39] | – | – | 2.37 ± 0.42 | 2.04 ± 0.56
25 | YGHCTAGGEGVEVELLHNTSYTRQ [SCNN1D] | – | – | 3.71 ± 0.22 | 3.8 ± 0.25
26 | KDVKERFSGSLVAALSATGPRFLA [TMEM175] | – | – | 2.88 ± 0.55 | 2.73 ± 0.68
27 | IQSKDGKSPLHMTAVHGRFTRSQT [ANKRD44] | – | – | 3.84 ± 0.32 | 3.9 ± 0.36
28 | LGHMFMYFLRGSLPWQGLKADTLK [CSNK1G3] | – | – | 2.06 ± 0.26 | 2.57 ± 0.98
29 | SPGKQPGENSDCHRDSSQAIPITE [ZNF8] | – | – | 5.4 ± 0.17 | 5.429 ± 0.041
30 | AISLTKCLESTKLLADLKKCGDLE [MIA2] | – | – | 2.64 ± 0.57 | 2.79 ± 0.69
31 | SQTDRGASAGKRRCFWLGMEGLET [SDE2] | – | – | 2.87 ± 0.45 | 2.96 ± 0.14
32 | FRFIPVLFPNAKKEHVPTWLQNTH [TRAF3IP2] | – | – | 2.3 ± 0.61 | 2.6 ± 0.69
33 | DFSRCDMDGATLCNCALEELRLVF [ELF3] | – | – | 2.37 ± 0.15 | 2.11 ± 0.32
34 | KLILTSSASVIFEGVDIKNGTEDL [NSDHL] | – | – | 3.13 ± 0.33 | 3.27 ± 0.22
35 | GVVDSEDLPLNISREMLQQSKILK [HSP90AB1] | – | – | 4.09 ± 0.22 | 4.14 ± 0.28
36 | KDILGFAVMFFIVFFAYAQLGYLL [PKD2L1] | – | – | 2.81 ± 0.42 | 2.93 ± 0.54
37 | TQAPPSVILGVTNPFFAKTLQHWP [DENND6A] | – | – | 2.26 ± 0.24 | 2.12 ± 0.17
38 | KLNEQSPTRCTLEAGAMTFHYIIE [SEC22B] | – | – | 2.38 ± 0.75 | 2.25 ± 0.46
39 | AAAGLHASPMSADRVVAFMDHIRI [NR2F2] | – | – | 2.25 ± 0.4 | 2.26 ± 0.34
40 | RLPRQNSDGGQKNKPREHIIDCGD [WSB1] | – | – | 4.54 ± 0.39 | 5.07 ± 0.095
41 | KVSGNRCASPVTGPGSKRDAHFCA [ESR2] | – | – | 2.76 ± 0.44 | 2.79 ± 0.16
42 | RKPPVFDENEDVNFDHFEILRAIG [STK32A] | – | – | 2.76 ± 0.36 | 2.86 ± 0.31
43 | NVEDEAETKKVLGLQDTITAELVV [PALM] | – | – | 4.3 ± 0.28 | 4.25 ± 0.18
44 | DKGEKLLRCKLAAFYRLADLFGWS [ADD1] | – | – | 2.59 ± 0.64 | 2.28 ± 0.24
45 | LEGLNLSILKAMGKTKKDYQEASN [NECAB1] | – | – | 3.78 ± 0.14 | 3.91 ± 0.22
46 | QEYQLPYQRVLPLPIFTPAKMGAT [TCAP] | – | – | 3.01 ± 0.35 | 3.09 ± 0.18

Row | Sequence | protein stability index (treatment: DMSO, c terminus: native) | protein stability index (treatment: MLN4924 1 uM, 8 h, c terminus: native) | protein stability index [1] | protein stability index [2]
47 | GAFYRRAQRLRPQDEPRQGCQPED [KCNG1] | – | – | 5.21 ± 0.18 | 5.11 ± 0.11
48 | PSYKVKVTGLNPKTKYILLMDIVP [TBX5] | – | – | 2.73 ± 0.28 | 2.83 ± 0.49
49 | GLKASLERLQLEYVDVVFANRPDP [KCNAB2] | – | – | 2.47 ± 0.42 | 2.21 ± 0.37
50 | GREDEDGWETRGDRKARKPLVEKK [HES6] | – | – | 5.4 ± 0.14 | 5.34 ± 0.37
51 | LKNIELFDKLALRFHGRLLFLKDV [KCTD13] | – | – | 2.66 ± 0.77 | 2.11 ± 0.15
52 | EVLKVQTHLENPTRYHLQQARRQQ [TFE3] | – | – | 3.77 ± 0.23 | 3.91 ± 0.33
53 | LGKLEATIKSLSAELLKANEIIKK [SASS6] | – | – | 2.44 ± 0.34 | 2.68 ± 0.16
54 | TNTRRGSRAPCKVQGLEGIKMAMV [NEK8] | – | – | 2.32 ± 0.25 | 2.32 ± 0.23
55 | QSLVSILRTTVHHAFPVVTENRGN [CLCN6] | – | – | 2.69 ± 0.57 | 2.46 ± 0.059
56 | ITAPTEVEVMDETNCQKVLNMWCC [CSNK1G3] | – | – | 2.84 ± 0.29 | 2.98 ± 0.29
57 | GKSVSSSSSVETGPSVSEPPGLPR [SPATS1] | – | – | 5.08 ± 0.18 | 5.11 ± 0.067
58 | HELMLRFKDEYKSENIKLREENEK [CCDC89] | – | – | 5.21 ± 0.36 | 5.29 ± 0.13
59 | MKQLQQQQHSDKTSLQGLTGTPLV [ISL2] | – | – | 4.01 ± 0.35 | 4.2 ± 0.23
60 | HVTDPLIGCKKPVSASGKEMDWAQ [SMG5] | – | – | 3.78 ± 0.18 | 4.04 ± 0.24
61 | LYYSNFVLALEERFGVRPKVTGYL [MFSD9] | – | – | 2.76 ± 0.86 | 2.91 ± 0.79
62 | FLDLVKPEPVYKLTQRQVNITVQK [HACD3] | – | – | 2.56 ± 0.14 | 2.79 ± 0.44
63 | LRLENSSLFSQALKDEEAKVLQLT [CCDC89] | – | – | 3.6 ± 0.41 | 3.62 ± 0.61
64 | GHCLLDKPEAPLHLPVTFPGKDYD [ADAMTS4] | – | – | 4.14 ± 0.26 | 4.4 ± 0.3
65 | DHSFSLELGSEVDITEGDRKPDYT [ATF4] | – | – | 5.2 ± 0.29 | 5.34 ± 0.18
66 | KKKKKQKNKKSSTGEASENGLEDI [TCF25] | – | – | 5.04 ± 0.097 | 4.49 ± 0.25
67 | EQDSGVQVEGLTVQYLGQAPELLG [ADAMTS4] | – | – | 4.38 ± 0.13 | 4.91 ± 0.34
68 | EIDLDSMRNLKASLENSLREVEAR [KRT18] | – | – | 4.23 ± 0.28 | 4.23 ± 0.48
69 | VPRTEAPAPASSTPQEPWPGPTAP [PDLIM7] | – | – | 4.98 ± 0.22 | 5.2 ± 0.27

Row | Sequence | protein stability index (treatment: DMSO, c terminus: native) | protein stability index (treatment: MLN4924 1 uM, 8 h, c terminus: native) | protein stability index [1] | protein stability index [2]
70 | AGRQSVSGRKNSTSKDLVTLGASS [C6orf223] | – | – | 4.4 ± 0.16 | 4.49 ± 0.13
71 | SRKKPIWNVLMWTSLFLGNGVLLC [SOAT1] | – | – | 2.67 ± 0.81 | 2.73 ± 0.61
72 | DEEEDFFLRGPSGPRFGPRNDKIK [VAMP4] | – | – | 4.53 ± 0.26 | 4.62 ± 0.26
73 | FEMKKGQCKDALEIYKRFLTRMTR [SNAP91] | – | – | 2.46 ± 0.7 | 2.56 ± 0.43
74 | VFPPEVPISEKAKDLILRFCIDSE [STK38L] | – | – | 3.06 ± 0.35 | 3.32 ± 0.42
75 | KDTVICAMKITQEPQGLGYWEAWR [SPACA3] | – | – | 2.27 ± 0.49 | 2.22 ± 0.23
76 | VAPATMGSARSHASSRASENQSPS [ZBTB22] | – | – | 4.96 ± 0.073 | 5.07 ± 0.14
77 | LFGGFTTDKQPLSDAWTYCISKNE [KLHDC2] | – | – | 2.63 ± 0.47 | 2.75 ± 0.28
78 | RELLDRAMREAIQSYPSQDKPLPP [SOAT2] | – | – | 3.94 ± 0.12 | 3.95 ± 0.083
79 | TPLHRDKTPLHQKHAAFVTPDQKY [MYBL2] | – | – | 4.11 ± 0.2 | 4.08 ± 0.24
80 | GPVPGTPGLPGSTGNPKSEEPEVP [SPNS1] | – | – | 5.55 ± 0.2 | 5.3 ± 0.34
81 | EELEAKRLQCPFEQELLRRQQRLN [FAM107A] | – | – | 4.59 ± 0.15 | 4.63 ± 0.21
82 | ITALLNVSRRTSEACMTHLHYKWI [DUSP5] | – | – | 2.75 ± 0.53 | 2.54 ± 0.32
83 | GGGPSATEWACILRRKTPRHKQPT [C6orf223] | – | – | 3.57 ± 0.12 | 3.72 ± 0.16
84 | AILRVIRLVRVFRIFKLSRHSKGL [KCNA1] | – | – | 2.28 ± 0.36 | 2.46 ± 0.24
85 | YVRDRADLNKDKPVIPAAALAGYT [ETS1] | – | – | 2.44 ± 0.6 | 3.35 ± 0.78
86 | KKFQSEKAAGSVSKSTQFEYAWCL [FIS1] | – | – | 2.12 ± 0.22 | 2.33 ± 0.13
87 | QAWFGFAGTPGYLSPEVLRKDPYG [CAMK2D] | – | – | 2.86 ± 0.79 | 2.94 ± 0.39
88 | DGYCMFNHVAVAARYAQQKHRIRR [HDAC6] | – | – | 3.05 ± 0.42 | 3.53 ± 0.2
89 | KNKMMVCQVGGIEALVRTVLRAGD [CTNNB1] | – | – | 2.51 ± 0.45 | 2.22 ± 0.21
